Key:
[1] = Biotin inhibition of HABA binding to avidin; conditions: competitive binding of biotin and HABA to avidin
Excerpt: The normalized absorbance value was obtained by subtracting from all the absorbance values, the value at which the absorbance change stopped.
In vivo, avidin exists as a homotetramer and its activity is to bind biotin to protect avian and reptilian eggs from pathogen invasion. Based upon this biotin-binding property, an analog of biotin, HABA, is utilized for the quantification of activity. Using the HABA binding assay, estimates of total avidin amounts in the fractions eluted from the affinity column were identical to estimates made by ELISA.

[2] = Isoelectric point determination; assay type: physicochemical; conditions: 10 is the highest pI that can be experimentally determined
[3] = Effect of protease inhibitors on avidin stability in flaked maize kernel extract (biotin binding activity); assay type: physicochemical; conditions: control avidin dissolved in extraction buffer
Protocol: Dry maize kernels (12% MC; 500 g per batch) were first cracked using a roller mill (Ferrell-Ross, Oklahoma City, Okla.), then flaked to 0.3 mm thickness using Roskamp flaking rolls (Model K, Roskamp Mfg., Inc., Waterloo, Iowa.). The particle size distribution of flaked material was determined by sieving (see Table 1).
Twenty grams of flaked kernels were extracted with 200 ml of Tris-HCl pH 7.9 containing 500 mM NaCl, 1 mM CaCl2 with stirring for 30 min at ambient temperature. One extraction was performed in the absence of protease inhibitors (control) and one in the presence of a protease inhibitor mixture containing 10 mM 2-mercaptoethanol (2-ME), 5 mM ethylenediamine tetraacetic acid (EDTA), 0.1 mM phenylmethanesulfonyl fluoride (PMSF), and 0.2 mM Diazo-N-acetyl-N-Leu-MeO. EDTA and 2-ME were added at the beginning of the extraction, and PMSF and diazo-N-acetyl-N-Leu-MeO were added 15 minutes after the extraction began. The insoluble residue was separated by centrifugation at 20,500×g for 25 minutes at 0° C. The supernatant was filtered through four layers of cheesecloth. […] D: Residual avidin activity in cooked egg white assayed with improved sensitivity. J. Food Sci. 56:707 (1991].and for protein integrity on western blots. For a positive control, chicken egg white avidin (Sigma Chemical Co.) was dissolved in the extraction buffer and samples were taken as above for activity assays.

## egg white: native chicken egg white avidin (Sigma Chemical Co.)
[1]
  Ki: 3.2 µM
[2]
  pI: 10
[3]; 0 h
  avidin activity in extraction buffer: 88.2 µg/mL
[3]; 1 h
  avidin activity in extraction buffer: 62.6 µg/mL
[3]; 3 h
  avidin activity in extraction buffer: 61.1 µg/mL
[3]; 6 h
  avidin activity in extraction buffer: 60.6 µg/mL
[3]; 22 h
  avidin activity in extraction buffer: 59.6 µg/mL

From patent publication US7071384B2, “Methods for commercial production of heterologous laccase in plant tissue and extraction of the laccase from plant seed” (Genencor International, Inc., priority 1997, dated 2006)
